These results are taken from PMC11132685.

This assay concerns the target tetrabrachion-stabilised recombinant N2 NA (NACHO) of A/MORAMANGA/1907/2017 (not stated | influenza A virus (H3N2) A/MORAMANGA/1907/2017). The experiment in a line: SEC-MALS; purified NACHOs; oligomeric state; conditions not given. A general note: SEC sorts molecules by how far they enter the pores of the column.

Consider “tetrabrachion-stabilised recombinant N2 NA (NACHO) of A/MORAMANGA/1907/2017 (enzyme)”, for which the stoichiometry N was determined as 4.

For orientation: stoichiometry N means the number of molecules, sites or subunits per partner or assembly.
